Measured values: paper doi:10.1101/2023.10.06.561239 (bioRxiv, 2023)

Biological target: T1, human DMC1, untagged, purified recombinant (human, UniProt Q14565 1-340)
T1 sequence (looked up): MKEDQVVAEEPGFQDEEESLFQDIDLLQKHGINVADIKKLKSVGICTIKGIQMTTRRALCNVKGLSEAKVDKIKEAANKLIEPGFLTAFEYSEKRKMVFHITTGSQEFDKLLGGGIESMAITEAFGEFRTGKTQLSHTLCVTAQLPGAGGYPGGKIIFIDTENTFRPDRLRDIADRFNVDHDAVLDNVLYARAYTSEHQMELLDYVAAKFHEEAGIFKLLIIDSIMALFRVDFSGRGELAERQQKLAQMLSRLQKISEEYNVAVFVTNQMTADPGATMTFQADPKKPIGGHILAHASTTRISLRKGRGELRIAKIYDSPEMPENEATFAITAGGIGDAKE
Test: pull-down

binding result: binds
B1: human his-GST-TEV-BRCA2 F2s3 (aa 2379-2433), wild type (domain or fragment, UniProt P51587 2379-2433, looked up)
chain: GHPFYQVSATRNEKMRHLITTGRPTKVFVPPFKTKSHFHRVEQCVRNINLEENRQ
